{"source": "the nanobody polyreactivity screen of Harvey et al. (2022)", "data": [{"experiment": "yeast display, Sf9 membrane polyspecificity reagent, FACS + sequencing; frameworks hold sequencing errors", "method_in_brief": "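Using colony PCR, genes from sorted yeast display clones were amplified, then sequenced on MiSeq at 2 × 250 and filtered by CDR length. The clones had been stained with 10% biotinylated, detergent-solubilized Sf9 membrane reagent for 1 hour at 4 °C and sorted by FACS into low and high (top ~1%) gates on anti-HA and streptavidin fluorescence. Polyreactivity labels come from the gate of origin.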", "values": [{"sequence": "QVQLVESGGGLVQAGGSLRLSCAASGLTFKVNPMGGYRQAPGKERELVPAISSGDRTYYADSVKGRFTISRDNAKNTVDLQMNSLKPEDTAVYYCNARGHNRYGTLLGFGRVPGYDYWGQGTQVTVSS", "polyreactivity (PSR sort gate)": "low polyreactivity"}, {"sequence": "QVQLVESGGGLVQAGGSLRLSCAASGFNFTGYTMGWYRQAPGTERELVAAISSSGGSTYYADSVKGRFTISRDNAKNTVYLQMNSLKPEDTAVDYCNAPRYRPGYWYDYWGQGTQVNVSS", "polyreactivity (PSR sort gate)": "high polyreactivity"}, {"sequence": "QVQLVESGGGLVQAGGSLRLSCAASGSIFPGNAMRWYRQAPGKERELVATITWSGGSTYYADSVKGRFTISRDNAKNTVYLQINSLKPEDTAVYYCNADSNWYYQWNYYGLYDYWGQGTQVTVSS", "polyreactivity (PSR sort gate)": "low polyreactivity"}, {"sequence": "QVQLVESGGGLVQAGGSLRLSCAASGRTFAGNAMGWYRQAPGKERELVAAISWSGGRTYYADSVKGRFTISRDNAKNTVYLQMNSLKPEETAVYYCAAVRASSRFRYGYWGQGTQVTVSS", "polyreactivity (PSR sort gate)": "high polyreactivity"}, {"sequence": "QVQLVESGGGLVQAGGSLRLSCAASGSILVRYSMGWYRQAPGKERELVAAITSGGSTYADSVKGRFTISRDNAKNTVYLQLNSLNPEDTAVYYCARDYFNREAFDYWGQGTQVTVSS", "polyreactivity (PSR sort gate)": "low polyreactivity"}, {"sequence": "QVQLVESWGGLVQAGGSLRLSCAASGRTFVTNAMGRYRQAPGTERELVAAISGSGGSTYYADSVTGRFTISRDNAKNTVYLQMNSLKPEDTAVYYCATSYSLGYARYGYWGQGTQVTVSS", "polyreactivity (PSR sort gate)": "high polyreactivity"}, {"sequence": "QVQLVESGGGLVQAGGSLRLSCAASGGILGWSAMGWSRQAPGKERELVAAIRDSGGSTYYADSVKGRFTIARDNAKKTVYLQMNSLKPEDTAVYYCAAYYIASRSTRYYYWGQGTQVTVSS", "polyreactivity (PSR sort gate)": "high polyreactivity"}, {"sequence": "QVQLVESGGGLVQAGGSLRLSCAASGRTLRAYAMGWYRQAPGKERELVAAITWSGGSTYYADSVKGRFTISRDTAKNTVYLQMNSLKPEDTAVYYCNARSYPDLYDYWGQGTQVTVSS", "polyreactivity (PSR sort gate)": "low polyreactivity"}, {"sequence": "QVQLVESGGGLVQAGGSLRLSCAASGRIFGVNAMGWYRQAPGKVRELVAAIRYSGGSTYYADSVKGRFTISRDYAKNTVYLQMNSLKPEDTAVYYCAKARYTYSWSFGYWGQGTQVTVSS", "polyreactivity (PSR sort gate)": "low polyreactivity"}, {"sequence": "QVQLVESGGGLVQAGGSLRLSCAASGRIFDRNAMGWYRQAPGKERELVAAIDDSGGDTSYADSVKGRFTISRDTAKNTVYLQMNSLKPEDTAVYYCAAKRQYYQTGSQRSYPYDYWGQGTQVTVSS", "polyreactivity (PSR sort gate)": "low polyreactivity"}, {"sequence": "QVQLVESGGGLVQAGGSLRLSCAASGLIIYRYGMGWYRQAPGKERELVAAISYSGSSSYYADSVKGRFTISRDNAKNTVYLQMNSLKPEDTAVYYCAARHGPRSEAMYYWGQGTQVTVSS", "polyreactivity (PSR sort gate)": "high polyreactivity"}, {"sequence": "QVQLVESGGGLVQAGGSLRLSCAASGSTFRRYAMGWYRQAPGKERELVASITYRGGSTYYADSVKGRFTISRDNAKNTVYLQMNSLKPEDTAVYYCAKKGVYGPLNEYWGQGTQVTVSS", "polyreactivity (PSR sort gate)": "high polyreactivity"}, {"sequence": "QVQLVESGGGLVQAGGSLRLSCAASGITFDSNAMGWYRQAPGKERELVAAISASGGRTYYADSVKGRFTISRDNAKNTVYLQMNSLKPEDTAVYYCNARYYVKHPLPYDYWGQGTQVTVSS", "polyreactivity (PSR sort gate)": "low polyreactivity"}, {"sequence": "QVQHVESGGGLVQAGGSLRLSCAASGFIFRRYAMGWYRQAPGKERELVAAISWRSGSTYYADSVKGRFTISRDNAKNTVYLQMNSLKPEDTAVYYCAAKDQATYQLNYWGQGTQVTVSS", "polyreactivity (PSR sort gate)": "high polyreactivity"}, {"sequence": "QVQLVESGGGLVQAGGSLRLSCAASGRIFYSYAMGGYRQAPGQERELVAAIDESDGSTYYADSVKGRFTISRDNATNTVYLQLNSLKPDDTAVYYSAADSLLVLFDYWGQGTQVTVSS", "polyreactivity (PSR sort gate)": "low polyreactivity"}, {"sequence": "QVQLVESGGGLVQAGGSLRISCAASGFTFRSYVMGWYRQAAGKEWELVAAISSRGSSTSYADSVKGRFTISRDNAKNTVYLQMNSLKPEDTAVYDCAPRLFWRGRKFAYWGQGTQVTVSS", "polyreactivity (PSR sort gate)": "high polyreactivity"}, {"sequence": "QVQLVESGGGLVQAGGSLRLSCAASGNIFESYGMGWYRQAPGKERELVATINTSSGSTYYADSVKGRFTISRDNAKNTVYLQMNILKPEDTAVYYCAAEWYPYPWGYGYWGQGTQVTVSS", "polyreactivity (PSR sort gate)": "low polyreactivity"}, {"sequence": "QVQLVESGGGIVQAGGSLRLSCAASGSTFYDYAMGWYRQAPGKETELVAAITRGGSTYYADSVKGRFTISRDNAKNTVYLQMNILKPEDTAVFYCAKYLTCAAYLVPEYDYWGQGTQVSVSS", "polyreactivity (PSR sort gate)": "low polyreactivity"}, {"sequence": "QVQLVESGGGLVQAGGSLRLSCAASGFTFRVYAMGWYRQPPGKERELVAVISGTGGRTYYADSVKGRFTISRDNAKNTVYLQMNSLKPEDTAVYYCAAVGLTPKAIWTSDYWGQGTQVTVSS", "polyreactivity (PSR sort gate)": "high polyreactivity"}, {"sequence": "QVHLVESGGGLVQAGGSLRLSCSASGITFTRYTMGWYRQARGKERELVASIRRSGSTNYADSVKGRFTISRDNAKNTVYLQMNSLKPEDTAVYYCAAVQTGRYYYWGQGTQVTVSS", "polyreactivity (PSR sort gate)": "high polyreactivity"}, {"sequence": "QVQLVESGGGLDQAGGSLRLSCAASGSIFWAYVMGWYRQAPGKERELVARISSGGRTKYADSVKGRFTISRDNAKNTVYLQMNSLKPEDTAVYYCNADASSSPYTDRQYIGADDSWGHGTQVTVSS", "polyreactivity (PSR sort gate)": "low polyreactivity"}, {"sequence": "QVQLVESGGGLVQAGGSLRLSCAASGRIVGYAMGWYRQAPGKERELVAAITGSTGSTYYADSVKGRFTISRDNAKNTVYLQMNSLKPEDTAVYYCATKYGRYVYYNHVTWMYYWGQGTQVTVSS", "polyreactivity (PSR sort gate)": "high polyreactivity"}, {"sequence": "QVQLVESGGGLVQAGGSLRLSCAASGRIFVGYAMGWYRQAPGKERELVAAITGSGGGTYYADSVKGRFTISRDNAKNTVYLQMNSLKPEDTAVYYCAATGYLKVRGYYAWHFYYWGQGTQVTVSS", "polyreactivity (PSR sort gate)": "high polyreactivity"}, {"sequence": "QVQLVESGGGLVQAGGSLRLSCAASGPIFKRNDMGWYRQSHGKERELVAAISGSGGRTYYADSLKGRFTISRDNAKNTVYLQMNSLKPEDTAVYYCNAGGSYYARGMDYWGQGTQVTVSS", "polyreactivity (PSR sort gate)": "high polyreactivity"}, {"sequence": "QVQLVESGGGLVQAGGSLRLSCAASGSTFKWYAMGWYRQAPGKERELVAAINWSSGRTYYADSVKGRFTISRDNAKNTVYLQMNSLKPEDTAVYYCAAEAGYFSWRTMDYWGQGTQVTVSS", "polyreactivity (PSR sort gate)": "high polyreactivity"}, {"sequence": "QVQLVESGGGLVQAGGSLRLSCAASGRTFPSYAMGWYRQAPGKERELVAGIRWGAGRTYYADSVKGRFTISRDNAKNTVYLQMNSLKPEVTAVYYCAADPWSGSDYWGQGTQVTVSS", "polyreactivity (PSR sort gate)": "low polyreactivity"}, {"sequence": "QVQLVESGGGLVPAGGSLRLSCAASGSIFVQNAMGWYRQAPGKERELVAVINSGDSTNYADSVKGRFTISRDNAKNTVYLQMNSLKPEDTAVYYCNADVSYTSEDQRALFTNVYYWGQGTQVTVSS", "polyreactivity (PSR sort gate)": "low polyreactivity"}, {"sequence": "QVQQQESRGGLVQAGGSLRLSCAASCTISQEDWMGWYRQAPGKEREFVAAIGLGSNTNYADSLKGRFTISRDNAKNTVYLQMNSLKPEDTAVYYCAVSVWQYSDHVYRGQGTQVTVSS", "polyreactivity (PSR sort gate)": "low polyreactivity"}, {"sequence": "QVKRVESGGGLVQAGGSLRLSCAASGIMFSPNDMGRFRQGPGKERELVARITTDGSSTYYADSVKGRFTISRDNAKNTVYLQINSLKPEDTAVYSCNADQLWYSLFDYWGQGTLVTVSS", "polyreactivity (PSR sort gate)": "high polyreactivity"}, {"sequence": "QVQLVESGGGLVQAGGSLRLSCAASGSIFYRNAMGWYRQAPGKERELVAAITRSDGRTYYADSVKGRFTISRDNAKNTVYLLMNSLKPEDTAVYYCAADYSFGYRDFYYWGQGTQVTVSS", "polyreactivity (PSR sort gate)": "low polyreactivity"}, {"sequence": "QVQLVESGGGLVQAGGSLRLTCAASGSIIVTYAMGWYRQAPGKERELVAVINSGTSTNYADSVKGRFTISRDNAKNTVYLQMNSLKPEDTAVYYCNADPLVYYYQDYRFCMGYWGQGTQVTVSS", "polyreactivity (PSR sort gate)": "low polyreactivity"}, {"sequence": "QVQHVESGGGLVQAGGSLRLSCAASGRTFRDYVMGWYRQAPGKETALVAAISTRGASTYYADSVKGRFTISRDNANNTVYLQMNRLKPEDTAVYYCAARSTRRGNEYDYWGQRTQVTVSS", "polyreactivity (PSR sort gate)": "high polyreactivity"}, {"sequence": "QVQLVESGGGLVQAGGSLRLSCAASGLTFVDYTKGWYRQAPGNERELVAAIDWSGGSTYYADSVKGRFTISRDNAKNPVYLQMNSLKPEDTAVYYCNALRRFYSMDDYWGQGTQVTVSS", "polyreactivity (PSR sort gate)": "low polyreactivity"}, {"sequence": "QVQLVESGGGLVQAGGSLRLSCAASGRIFVYNAMGWYRQAPGKEREFVAAISWDGASTYYADSVKGRFTISRDNAKNTVYLQMNSLKPEDTAVYYCAASYRRKLNYDYWGQGTQVTVSS", "polyreactivity (PSR sort gate)": "low polyreactivity"}, {"sequence": "QVQLVESGGGLVQAGGSLRLSCAASGSIFASNAMGWYRQAPGKEREFVAAITWRTDRTYYADSVKGRFTISRDNAKNTVFLQMNSLKPEDTAVYYCAADTWFYRFYYWGQCTQVTVSS", "polyreactivity (PSR sort gate)": "high polyreactivity"}, {"sequence": "QVQLVESGGGLVQAGGSLRLSCAASGRILKYNAMGWYRQAPGKERELVAAISYRGGSTYYADSVKGRFTISRDNAKNTVYLQMNSLKPEDTAVYYCNAGGGILNGPLFDYWGQGTQVTVSS", "polyreactivity (PSR sort gate)": "low polyreactivity"}, {"sequence": "QVQLVESGGGLVQAGGSLRLSCAASGRIFRYYAMGWYRQAPGKERELVAAIRWTAGSTYYADSVKGRFTISRDIAKNTVYLQMNSLKPEDTAVYYCATDVWKYGRYEYWGQGTQVTVSS", "polyreactivity (PSR sort gate)": "low polyreactivity"}, {"sequence": "QVQLVESGGGLVQAGGSLRLSCAASGRIFKYYVMGWYRQAPGKERELVAGISSSGVSTYYADSVKGRFTISRDNAKNTVYLQMNSLKPEDTAVYYCNAKSRTGYGRGDYWGQGTQVTVSS", "polyreactivity (PSR sort gate)": "high polyreactivity"}, {"sequence": "QVQLVESGGGLVQAGGSLRLSCAASGSTFYPNAMGWYRQAPGKERELVAAITGGGSTTYADSVKGRFTISRDNAKNTVYLQMNSLKQEDTAVYYCNTDGPRYARPYDSWGQGTQVTVSS", "polyreactivity (PSR sort gate)": "low polyreactivity"}, {"sequence": "QVQLVESGGGLVQAGGSLRLSCAASGRILAYYAMGWYRQAPGKERELVARISGSGTSTYYADSVKGRFTISRDNAKNTVYLQMNSLKPEDTGVYYCAATYYRGGRSNGPAWWHEYWGQGTQVTVSS", "polyreactivity (PSR sort gate)": "high polyreactivity"}, {"sequence": "QVQLVESGGGLVQAGGSLRLSCAASGRILPYNVMGWYRQAPGKEWEFVAAITGSGGDTYYADSVKGRFTISRDTAKNTVYLQMNSLKPEDTAVYYCAAAPYIGGSFGQTPGSGYWGQGTQVTVSS", "polyreactivity (PSR sort gate)": "low polyreactivity"}, {"sequence": "QVQLVESGGGLVQAGGSLRLSCAASGITFAWYAMGWYRQAPGKERELVAAIDDRGGSTYYADSVKGRFTISRDNAKNTVYFQMNSLKPEDTAVYYCNADTKSYEPYRLDYWGQGTQVTVSS", "polyreactivity (PSR sort gate)": "low polyreactivity"}, {"sequence": "QVQLVESGGGLVQAGGSLRLSCAASGFIFGAYAMGWYRQAPGKERELVAAISRRGGSTYYADSVKGRFTISRDNAKNTVYLQMNSLKPEDTAVYYCAADISGSYYRPQYDYWGQGTQVTVSS", "polyreactivity (PSR sort gate)": "low polyreactivity"}]}]}
